Reference: article PMC6876990 (2019)

Molecular target: T1, Smac peptide AVPIAQKSEKY (Homo sapiens)
T1 chain: AVPIAQKSEKY
Experiment: ITC

Kd: 0.428 µM
B1: WT-XIAP BIR3 241-356 (protein)
chain: SDAVSSDRNFPNSTNLPRNPSMADYEARIFTFGTWIYSVNKEQLARAGFYALGEGDKVKCFHCGGGLTDWKPSEDPWEQHAKWYPGCKYLLEQKGQEYINNIHLTHSLEECLVRTT
